The text below walks through data of PMC2362362 (British Journal of Cancer, 1999).

This assay deals with T1, extracellular domain of the human CD30 receptor fused to the hinge, CH2 and CH3 domain of human IgG1 … (Homo sapiens (Human)., UniProt P28908).
T1 construct: also called recombinant, human sCD30-Fc protein
Kind of assay: SPR; BIAcore 2000; sCD30-Fc covalently coupled to a CM-5 sensorchip (450 RU, 'low density'); surface saturated by multiple injections of antibody or fragment, flow 20 ul/min; dissociation rates by curve fitting (monovalent for the scFv, bivalent for the mAb). As to conditions: both partners purified.

T1 sequence (P28908 19-385): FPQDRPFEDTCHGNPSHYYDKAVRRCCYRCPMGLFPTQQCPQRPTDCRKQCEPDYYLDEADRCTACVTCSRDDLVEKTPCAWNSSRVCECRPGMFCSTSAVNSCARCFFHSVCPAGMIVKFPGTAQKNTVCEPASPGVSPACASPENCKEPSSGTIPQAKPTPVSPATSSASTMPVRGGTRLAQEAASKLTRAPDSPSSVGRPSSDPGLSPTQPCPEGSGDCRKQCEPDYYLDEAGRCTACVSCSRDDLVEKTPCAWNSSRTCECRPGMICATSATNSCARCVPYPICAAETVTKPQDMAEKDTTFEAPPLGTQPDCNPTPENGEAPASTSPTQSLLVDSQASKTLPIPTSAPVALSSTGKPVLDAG

B1: Ki-4 single-chain variable fragment (scFv), soluble (scFv, V domains shown)
VH: QVKLQESGTELAKPGAAVKMSCKASGYTFTDYWMHWVKQRPGQGLEWIGYINPNTAYTDYNQKFKDKATLTADKSSSTAYMQLRSLTSEDSAVYYCAKKTTQTTWGFPFWGQGTTVTVSS
VL: DIVLTQSPKSMAMSVGERVTLSCKASENVDSFVSWYQQKPGQSPKLLIYGASNRYTGVPDRFAGSGSGRDFTLTISSVQAEDLADYHCGQNYRYPLTFGAGTKLEIK
notes: also called Ki-4 scFv; His-tagged Ki-4 scFv
Consider B1, for which the koff worked out at 0.00018 s⁻¹ and the “t1/2 of the antibody-antigen complex (=ln2/koff)” value came to 1.07 h.

B2: anti-CD30 monoclonal antibody Ki-4 (antibody, V domains shown)
VH: QVKLQESGTELAKPGAAVKMSCKASGYTFTDYWMHWVKQRPGQGLEWIGYINPNTAYTDYNQKFKDKATLTADKSSSTAYMQLRSLTSEDSAVYYCAKKTTQTTWGFPFWGQGTTVTVSS
VL: DIVLTQSPKSMAMSVGERVTLSCKASENVDSFVSWYQQKPGQSPKLLIYGASNRYTGVPDRFAGSGSGRDFTLTISSVQAEDLADYHCGQNYRYPLTFGAGTKLEIK
notes: also called Ki-4 mAb; Ki-4 whole antibody; copies: 2 + 2
For B2, the dissociation rate constant (koff) was 0.00012 s⁻¹ and the “t1/2 of the antibody-antigen complex (=ln2/koff)” value came out at 1.6 h.
